Reference: article PMC7501274

Key:
[1] = target: CsaC-H228A (Neisseria meningitidis serogroup A); assay: crystal structure; sitting drop, PEG200, HEPES pH 7.0/7.6; two protein molecules in the asymmetric unit, tetrameric assembly in the crystal packing; apo, CPS-DP4-soaked (wild type) and acetyl-CoA-soaked (H228A) crystals
[2] = target: capsule O-acetyltransferase CsaC, wild type (Neisseria meningitidis serogroup A); assay: AUC; sedimentation velocity (3.0 to 40.9 µM CsaC, 35,000 rpm) and sedimentation equilibrium (9.1 and 40.9 µM CsaC, single species model), 20 °C, 50 mM HEPES pH 7.0, 0.1 M NaCl, 5 mM MgCl2, 1 mM EDTA
[3] = target: capsule O-acetyltransferase CsaC, wild type (Neisseria meningitidis serogroup A); assay: crystal structure; sitting drop, PEG200, HEPES pH 7.0/7.6; two protein molecules in the asymmetric unit, tetrameric assembly in the crystal packing; apo, CPS-DP4-soaked (wild type) and acetyl-CoA-soaked (H228A) crystals

Substance | stoichiometry N [1] | stoichiometry N [2] | stoichiometry N [3]
CsaC-H228A (enzyme) | 4 | – | –
capsule O-acetyltransferase CsaC, wild type (enzyme) | – | 4 | 4
